The values that follow come from publication doi:10.1101/2025.11.03.686418.

Like-named read-outs stand apart in the source and are kept apart here.

The term stoichiometry N denotes the number of molecules, sites or subunits per partner or assembly.

What all share (experiment): SEC-MALS
In general terms: Size exclusion chromatography separates by hydrodynamic size, large species first.

Test [1] deals with His6-QatC (co-expressed with QatB) (Escherichia coli NCTC9009).
Test [2] shares this target. The source holds these as a separate data set.
The target in test [3] is QatB (untagged, co-expressed with His6-QatC) (Escherichia coli NCTC9009).

For “QatB (untagged, co-expressed with His6-QatC) (natural protein)”, the stoichiometry N in test [1] and in test [2] was 1 in each case.
As for QatD (untagged, co-expressed) (enzyme), in test [3], the stoichiometry N came out at 1.
